# Measured values: PMC12486124 (bioRxiv, 2025)
# B1: E2F1-DP2 DNA binding domains heterodimer (complex)
# chain 1: not shown
# chain 2: KNGKGLRHFSMKVCEKVQRKGTTSYNEVADELVSEFTNSNNHLAADSAYDQKNIRRRVYDALNVLMAMNIISKEKKEIKWIG
# Molecular target: reconstituted nucleosome (Xenopus laevis histone octamer on Widom 601 DNA) (Xenopus laevis)
# Test: fluorescence polarisation
binder,measurement,value
B1,Kd,120 ± 10 nM
